As a reminder, the Ki is a dissociation constant, usually derived from enzyme kinetics or from competition with a known ligand.

Starred links: 1 amine or outer side, 2 acyl side, 3 side chain; linkers in the order of their positions; H or OH if unused. Positions of bridges follow the written chain, without caps; N, C: chain ends. Non-standard residues stand in square brackets, D forms with d. No end group written: not given here. TBMB = c1c(C[*:1])cc(C[*:3])cc1C[*:2]; Dap(Me) = CNC[C@H](N)C(=O)O

Assay [1] addresses integrin αvβ3 (Homo sapiens, UniProt P05106+P06756). Kind of assay: Integrin αvβ3 competition binding assay (competition fluorescence polarisation, FITC-LC-GRGDSP ligand). The settings on record: relative to thioether linked Reference Example 1. On the procedure: The peptide ligands of the examples and the reference examples were tested in the above mentioned assay.
The following reference peptide ligands having a TBMB or TATA scaffold with three thioether linkages to cysteine residues of the specified peptide sequences were prepared and evaluated for affinity to integrin αvβ3 as described in detail in our earlier application GB1800598.3 filed 15 Jan. 2018.
Background: Polarisation of emitted light reports the rotation of a fluorescent probe.

Assay [2] has as its target integrin αvβ3. Kind of assay: competition fluorescence polarisation, 5 nM FITC-LC-GRGDSP tracer; n1.
The target of assay [3] is integrin αvβ3. Kind of assay: competition fluorescence polarisation, 5 nM FITC-LC-GRGDSP tracer; n2.

On to “[Ac]A[Dap(Me)]ILRPN[Dap(Me)]DLDGR[Dap(Me)]A [BCY00009181]”, for which the “binding affinity to integrin αvβ3 (in words)” value on integrin αvβ3 [1] was “larger drop in the measured affinity”.
On to Ac-A[Dap(Me)]ILRPN[Dap(Me)]DLDGR[Dap(Me)]A (linker 2-8-14 via TBMB) [BCY00009181], for which the Ki with integrin αvβ3 [2] and in the assay with integrin αvβ3 [3] was above 18.6 µM in each case.
